This is an account of results in paper PMC4191399.

Numbering of substitutions follows the chain as printed.

What all share (assay): fluorescence polarization
What all share (conditions): internal 6-carboxyfluorescein in backbone between U12 and C13 (central tetraloop bases); 25 mM MOPS pH 7.4, 150 mM KCl, 2 mM DTT, 2 mM MgCl2, 0.01% Triton X-100, 1 nM RNA, room temperature, 1 h

Data set [1] deals with T1, RIG-I K788A K788A (Homo sapiens) (UniProt O95786).
T1 sequence: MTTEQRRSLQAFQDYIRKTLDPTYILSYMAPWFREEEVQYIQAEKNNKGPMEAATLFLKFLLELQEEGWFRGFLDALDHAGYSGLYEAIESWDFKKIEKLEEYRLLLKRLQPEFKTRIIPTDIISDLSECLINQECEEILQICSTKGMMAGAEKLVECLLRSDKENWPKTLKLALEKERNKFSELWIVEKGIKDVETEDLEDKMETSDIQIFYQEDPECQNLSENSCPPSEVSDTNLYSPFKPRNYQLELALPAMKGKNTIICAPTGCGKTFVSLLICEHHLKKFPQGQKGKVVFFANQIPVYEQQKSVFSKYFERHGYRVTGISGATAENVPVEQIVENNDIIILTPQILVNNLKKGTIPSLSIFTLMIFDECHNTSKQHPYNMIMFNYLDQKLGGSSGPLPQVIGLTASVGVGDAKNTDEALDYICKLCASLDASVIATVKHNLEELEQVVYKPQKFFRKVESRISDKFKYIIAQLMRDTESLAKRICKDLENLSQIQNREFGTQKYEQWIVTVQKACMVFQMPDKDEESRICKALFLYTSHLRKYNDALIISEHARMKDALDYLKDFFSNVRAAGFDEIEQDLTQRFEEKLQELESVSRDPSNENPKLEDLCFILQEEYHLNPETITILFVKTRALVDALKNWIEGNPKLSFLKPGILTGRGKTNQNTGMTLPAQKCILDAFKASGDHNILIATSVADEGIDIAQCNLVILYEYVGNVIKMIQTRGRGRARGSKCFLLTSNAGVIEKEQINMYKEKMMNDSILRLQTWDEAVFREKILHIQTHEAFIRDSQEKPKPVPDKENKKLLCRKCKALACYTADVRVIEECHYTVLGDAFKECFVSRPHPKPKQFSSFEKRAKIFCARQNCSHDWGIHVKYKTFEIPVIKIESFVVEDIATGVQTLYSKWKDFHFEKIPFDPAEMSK

Data set [2] addresses T2, RIG-I Q784A Q784A (Homo sapiens) (UniProt O95786).
T2 sequence: T1 sequence with Q784A, A788K

Data set [3] concerns the target T3, RIG-I Q784A/K788A/R791A Q784A;K788A;R791A (Homo sapiens) (UniProt O95786).
T3 sequence: T1 sequence with Q784A, R791A

For the sequence GGACGUACGUUUCGACGUACGUCC [5'OH10L-F], the dissociation constant (Kd) (commonly the constant that tells how readily two partners part at equilibrium) in data set [1] is 21.6 nM; in data set [2] it was 23.8 nM; in data set [3], 172 nM.
